# Data as given in patent US20240254220A1 (CENTRICSBIO, published 2024).
# T1: CD300c antigen (11832-H08H, Sino Biological) (human, UniProt Q08708 21-183)
# T1 construct: Bought antigen; also called CD300c protein; CD300 antigen-like family member C
# T1 sequence (looked up): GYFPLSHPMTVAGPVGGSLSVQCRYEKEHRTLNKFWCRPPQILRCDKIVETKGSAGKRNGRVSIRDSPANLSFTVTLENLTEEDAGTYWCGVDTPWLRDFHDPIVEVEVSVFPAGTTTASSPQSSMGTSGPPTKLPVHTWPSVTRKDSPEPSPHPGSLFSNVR
# T2: CD300c on the surface of cells (human, UniProt Q08708 21-224)
# T2 construct: whole, on cells; also called cellular antigen
# T2 sequence (looked up): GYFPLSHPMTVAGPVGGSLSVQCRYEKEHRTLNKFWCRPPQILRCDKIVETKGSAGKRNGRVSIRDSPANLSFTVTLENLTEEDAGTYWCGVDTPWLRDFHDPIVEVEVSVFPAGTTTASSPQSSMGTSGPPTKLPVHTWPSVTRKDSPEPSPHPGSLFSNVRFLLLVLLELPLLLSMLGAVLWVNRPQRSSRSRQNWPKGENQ
# T3: mouse CD300c (mouse)
# T3 sequence (A2A7V7 whole entry, looked up): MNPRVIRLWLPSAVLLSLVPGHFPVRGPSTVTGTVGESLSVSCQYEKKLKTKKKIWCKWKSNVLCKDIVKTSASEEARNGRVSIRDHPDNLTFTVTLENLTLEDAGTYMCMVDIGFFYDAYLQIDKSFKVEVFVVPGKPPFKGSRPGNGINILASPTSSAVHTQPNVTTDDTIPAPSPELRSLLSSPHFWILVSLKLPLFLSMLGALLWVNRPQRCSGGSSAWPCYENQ
# Assays:
# [1] = target: T1, CD300c antigen (11832-H08H, Sino …); test: SPR, CD300c immobilised on the chip (399.2 RU), CL7 as analyte at 0-6.25 µg/mL; CD300c on the chip, CL7 as analyte
# Experimental: In order to identify the binding affinity between the antigen CD300c and the anti-CD300c monoclonal antibody CL7, a surface plasmon resonance experiment was performed.
# To immobilize CD300c on a […], 5 μg/mL of CD300c was diluted in 10 mM acetate buffer (pH 5.5). Then, the flow rates were all set equally to […], and the target RU was respectively set to 300 RU. […] by a mixture of 0.2 M EDC and 0.05 M NHS, and blocked with 1 M ethanolamine to perform the immobilization so that the final RU of CD300c became 399.2 RU. Then, CL7 was diluted in PBSP to concentrations of 0, 0.195, 0.39, 0.78, 1.56, 3.125, and 6.25 μg/mL, separately. […] Subsequently, 50 mM NaOH was allowed to flow at a rate of 30 μL/min for 30 seconds to regenerate the surface.
# [2] = target: T1, CD300c antigen (11832-H08H, Sino …); test: binding ELISA, plate coated with CD300c antigen (8 µg/mL), HRP anti-Fc IgG detection
# Experimental: In order to identify the antigen-binding ability of the anti-CD300c monoclonal antibodies produced in Example 1, binding ELISA was performed. Specifically, a CD300c antigen (11832-H08H, Sino Biological) or a CD300a antigen (12449-H08H, Sino Biological) in a coating buffer (0.1 M sodium carbonate, pH 9.0) was dispensed into an ELISA plate at a concentration of 8 μg/mL per well, followed by incubation at room temperature for 3 hours to allow the antigen to be bound to the plate. The unbound antigens were removed by washing three times using phosphate buffered saline-Tween 20 (PBST), and then 300 μL of PBST supplemented with 5% bovine serum albumin (BSA) was added to each well, followed by incubation at room temperature for 1 hour and then washing using PBST. Then, an anti-CD300c monoclonal antibody was diluted in quadruplicate and added thereto, followed by incubation for 1 hour at room temperature for antigen binding. After 1 hour, washing was performed three times using PBST to remove unbound anti-CD300c monoclonal antibody, and then 4 μg/mL of an antibody for detection (HRP conjugated anti-Fc IgG) was added, followed by incubation again at room temperature for 1 hour. Subsequently, the unbound antibody for detection was removed using PBST, and then TMB solution was added, followed by incubation for 10 minutes for development. Then, 2 N sulfuric acid solution was added to terminate the development reaction, and the absorbance was measured at 450 nm to identify the antibodies specifically binding to the CD300c antigen.
# [3] = target: T2, CD300c on the surface of cells; test: flow cytometry (FACS binding) on 293T cells overexpressing CD300c, FITC anti-human IgG (H+L), MFI
# Experimental: In order to identify whether the anti-CD300c monoclonal antibody (CL7) recognizes a cellular antigen, FACS binding was performed.
# Then, the cells were incubated with the anti-CD300c monoclonal antibody, which was serially diluted 3-fold starting from 10 μg/mL, in a CO₂ incubator for 30 minutes, and washed twice with FACS buffer. Then, the cells were incubated with FITC-conjugated anti-human IgG (H+L), which was diluted 1:100 in FACS buffer, in a CO₂ incubator for 30 minutes, and washed twice with FACS buffer. Subsequently, FITC signals were measured with a CytoFLEX instrument manufactured by Beckman Coulter, Inc., and then the MFI values were obtained using CytExpert program.
# mouse CD300c = target: T3, mouse CD300c; test: cell-based or functional assay
binder,measurement,setting,value
"CL7 (antibody, V domains shown, detected with anti-human IgG (H+L) and anti-Fc IgG; also called anti-CD300c monoclonal antibody CL7; anti-CD300c monoclonal antibody (CL7)) VH: EVQLLESGGGLVQPGGSLRLSCAASGFTFSRYAMSWVRQAPGKGLEWVSAISGSGGSTYYADSVKGRFTISRDNSKNTLYLQMNSLRAEDTAVYYCARSSQGIFDIWGQGTLVTVSS VL: QSVLTQPPSASGTPGQRVTISCSGNNIGTRRVHWYQQLPDTAPKLLIYSKNNRPSGVPDRFSGSKSGTSASLAISGLRSEDEADYYCAAWDDSLSGPVFGGGTKLTVL",Kd,[1],0.52 nM
same,EC50,[2],0.047 µg/mL
same,EC50,[3],2.7 nM
same,"cancer cell proliferation inhibitory effect, CT26 mouse colon cancer cells, 10 ug/mL antibody, 5 days, CCK-8",mouse CD300c,66%
